Measurements: patent US6855873
Where “and” joins values, the source holds several entries; their conditions need not be identical. Equal values may be shown once. Read-outs that look alike come from different tables or passages of the source.

Tests used:
[1] = target: ICP receptor sites on brush border membrane vesicles of Manduca sexta (reference, non-selected strain) (Manduca sexta)
[2] = target: ICP receptor sites on brush border membrane vesicles of the Dipel-resistant Plutella xylostella strain PxR (Plutella xylostella); test: cell-based or functional assay; design: unit not given beside the values
[3] = target: ICP receptor sites on brush border membrane vesicles of the sensitive Plutella xylostella strain PxS (Plutella xylostella); test: cell-based or functional assay; design: unit not given beside the values
[4] = target: ICP receptor sites on brush border membrane vesicles of the Dipel-resistant Plutella xylostella strain PxR (Plutella xylostella); test: 125I-toxin binding on P. xylostella BBMV
[5] = target: ICP receptor sites on brush border membrane vesicles of the sensitive Plutella xylostella strain PxS (Plutella xylostella); test: 125I-toxin binding on P. xylostella BBMV
[6] = target: ICP receptor sites on brush border membrane vesicles of Manduca sexta (reference, non-selected strain) (Manduca sexta); remark: listed apart in the source
[7] = target: ICP receptor sites on brush border membrane vesicles of Manduca sexta (reference, non-selected strain) (Manduca sexta); remark: listed apart in the source
[8] = target: ICP receptor sites on brush border membrane vesicles of Heliothis virescens (Heliothis virescens)
[9] = target: ICP receptor sites on brush border membrane vesicles of Manduca sexta (reference, non-selected strain) (Manduca sexta); remark: listed apart in the source
[10] = target: ICP receptor sites on brush border membrane vesicles of Manduca sexta (reference, non-selected strain) (Manduca sexta); test: cell-based or functional assay
[11] = target: ICP receptor sites on brush border membrane vesicles of the Bt18 selected Manduca sexta strain (Manduca sexta); test: cell-based or functional assay
[12] = target: ICP receptor sites on brush border membrane vesicles of the Bt2 selected Manduca sexta strain (Manduca sexta); test: cell-based or functional assay
[13] = target: ICP receptor sites on brush border membrane vesicles of the Bt18 selected Manduca sexta strain (Manduca sexta)
[14] = target: ICP receptor sites on brush border membrane vesicles of Heliothis virescens (Heliothis virescens); test: 125I-toxin competition binding on BBMV, filtration, LIGAND analysis
[15] = target: ICP receptor sites on brush border membrane vesicles of Manduca sexta (reference, non-selected strain) (Manduca sexta); test: as above
[16] = target: ICP receptor sites on brush border membrane vesicles of the Bt2/Bt18 selected Manduca sexta strain (Manduca sexta)
[17] = target: ICP receptor sites on brush border membrane vesicles of Pieris brassicae (Pieris brassicae); test: 125I-toxin competition binding on P. brassicae BBMV, LIGAND analysis

Bt3 toxin, sequence (P0A366 29-618 limits assumed): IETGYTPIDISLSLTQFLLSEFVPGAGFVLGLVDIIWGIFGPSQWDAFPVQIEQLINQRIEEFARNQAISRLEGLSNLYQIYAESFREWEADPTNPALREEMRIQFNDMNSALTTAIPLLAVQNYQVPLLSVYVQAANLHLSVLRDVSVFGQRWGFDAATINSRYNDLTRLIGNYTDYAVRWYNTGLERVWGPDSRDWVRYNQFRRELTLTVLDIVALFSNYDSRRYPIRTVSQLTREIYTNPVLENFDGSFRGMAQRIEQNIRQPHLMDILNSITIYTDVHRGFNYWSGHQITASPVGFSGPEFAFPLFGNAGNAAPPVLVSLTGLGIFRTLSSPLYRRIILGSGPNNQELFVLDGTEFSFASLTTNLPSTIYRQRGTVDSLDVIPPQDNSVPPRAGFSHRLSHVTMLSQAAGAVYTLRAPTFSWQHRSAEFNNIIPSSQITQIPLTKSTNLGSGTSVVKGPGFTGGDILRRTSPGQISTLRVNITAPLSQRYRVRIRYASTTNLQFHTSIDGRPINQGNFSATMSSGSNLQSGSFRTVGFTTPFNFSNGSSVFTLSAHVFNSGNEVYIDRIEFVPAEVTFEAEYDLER
Bt14 toxin, sequence (P0A374 30-647 limits assumed): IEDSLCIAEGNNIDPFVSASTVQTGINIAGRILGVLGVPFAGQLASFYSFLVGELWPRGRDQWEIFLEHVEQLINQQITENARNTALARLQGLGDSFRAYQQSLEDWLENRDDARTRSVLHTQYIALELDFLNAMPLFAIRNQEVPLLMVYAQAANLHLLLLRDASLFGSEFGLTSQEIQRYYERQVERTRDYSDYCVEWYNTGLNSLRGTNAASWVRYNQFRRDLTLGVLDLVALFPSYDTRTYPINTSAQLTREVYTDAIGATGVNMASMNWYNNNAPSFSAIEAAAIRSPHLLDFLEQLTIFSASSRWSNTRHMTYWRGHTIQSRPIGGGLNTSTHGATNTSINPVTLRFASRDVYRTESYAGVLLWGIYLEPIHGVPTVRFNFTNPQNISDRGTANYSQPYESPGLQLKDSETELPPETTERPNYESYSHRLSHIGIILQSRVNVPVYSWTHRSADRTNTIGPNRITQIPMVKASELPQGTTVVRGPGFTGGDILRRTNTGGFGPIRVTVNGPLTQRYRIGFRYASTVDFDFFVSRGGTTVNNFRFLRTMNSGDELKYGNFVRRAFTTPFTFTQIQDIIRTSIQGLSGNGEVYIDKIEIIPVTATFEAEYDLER

Bt15 toxin (from UniProt P0A376 28-627) (ligand)
Kd [1]: 0.3 nM and 2.9 nM
LC50 (larval mortality, artificial diet) (ng protein per cm^2 of artificial diet) [2]: 120
LC50 (larval mortality, artificial diet) (ng protein per cm^2 of artificial diet) [3]: 133
Kd [4]: 3.7 nM
Rt (binding site concentration) (pmol/mg protein) [4]: 5.8
Kd [5]: 1.9 nM
Rt (binding site concentration) (pmol/mg protein) [5]: 4.2
Rt1 (binding site concentration) (pmol/mg vesicle protein) [6]: 5.9
Rt2 (binding site concentration) (pmol/mg vesicle protein) [7]: 6.7

Bt2 toxin (from UniProt P0A370 29-607) (ligand)
amount bound with labeled toxin alone (cpm) [8]: 1780 cpm
amount bound with labeled toxin alone (cpm) [9]: 1820 cpm
LC50 (larval mortality, artificial diet) (ng protein per cm^2 of artificial diet) [2]: > 1350
LC50 (larval mortality, artificial diet) (ng protein per cm^2 of artificial diet) [3]: 6.7
LC50 (Bt2 sensitivity) [10]: 20 ng/cm^2
LC50 (Bt2 sensitivity) [11]: 4 ng/cm^2
LC50 of the 20th generation [12]: 6400 µg/g
Kd [5]: 8.1 nM
Rt (binding site concentration) (pmol/mg protein) [5]: 1.6
Kd [13]: 0.4 nM
Rt (binding site concentration) (pmoles/mg vesicle protein) [13]: 20.8
Kd [14]: 0.6 nM
Rt (binding site concentration) (pmol/mg vesicle protein) [14]: 9.7
Kd [15]: 0.4 nM
Rt (binding site concentration) (pmol/mg vesicle protein) [15]: 3.4
Kd [16]: 0.4 nM
Rt (binding site concentration) (pmol/mg vesicle protein) [16]: 3.4
Kd [17]: 2.8 nM
Rt (binding site concentration) (pmol/mg vesicle protein) [17]: 12.9

Bt3 toxin (from UniProt P0A366 29-618) (ligand)
amount bound with labeled toxin alone (cpm) [8]: 472 cpm
amount bound with labeled toxin alone (cpm) [9]: 601 cpm
Kd [14]: 1.2 nM
Rt (binding site concentration) (pmol/mg vesicle protein) [14]: 3.7
Kd [15]: 1.5 nM
Rt (binding site concentration) (pmol/mg vesicle protein) [15]: 9.8

Bt14 toxin (from UniProt P0A374 30-647) (ligand)
Kd [17]: 8.4 nM
Rt (binding site concentration) (pmol/mg vesicle protein) [17]: 21.4

Bt73 toxin (from UniProt P05068 29-623) (ligand)
amount bound with labeled toxin alone (cpm) [8]: 6610 cpm
amount bound with labeled toxin alone (cpm) [9]: 2380 cpm
Kd [14]: 0.8 nM
Rt (binding site concentration) (pmol/mg vesicle protein) [14]: 19.5
Kd [15]: 0.6 nM
Rt (binding site concentration) (pmol/mg vesicle protein) [15]: 4
